The text below walks through data of US20030157522A1, “Methods and reagents for peptide-BIR interaction screens” (priority 2001, published 2003).

No end group written: not given here.

For assay [1], the system named is T24 bladder carcinoma cells. The assay can be described thus: Sensitization of adriamycin-resistant T24 cells (cell survival). Format: cell-based. To be noted: 10 μg/ml adriamycin alone. As for the experimental part:
FIG. 8 is a schematic illustration showing the effect of a compound identified as being capable of dislodging a HID 7mer from XIAP BIR3 on cell survival of T24 bladder carcinoma cells after 24 hours of exposure to 10 μg/ml adriamycin.
This is what we would expect from a compound that blocks the ability of IAPs to block caspases once the cell death pathways are activated by a death stimulus such as chemotherapy or radiation. Cancer cells in vivo may also die by the simple addition of the compound if the cancer cell is stressed by oncogene activation, nutrient deprivation, or loss of contact, and the IAPs are blocking caspases from effecting programmed cell death. The compound would be expected to antagonize IAP function and allow caspase activation under these situations.

Assay [2] addresses T1, XIAP BIR3 (Homo sapiens, UniProt P98170).
T1 construct: as the C-terminal portion of XIAP lacking BIR1 and BIR2, and containing BIR3 and the RING domain to the final C-terminal residue; made in house; host or cells: E. coli
The assay can be described thus: Fluorescence polarization HID peptide displacement assay. Format: binding. As to conditions: GST BIR3/Ring, fluorescein-HID probe. The source says: We developed an assay to screen for compounds capable of competing for the binding of an IAP-interacting peptide and displacing the peptide from its binding groove on BIR3 of XIAP (FIGS. 2-5). The BIR3 domain was produced as a GST fusion protein in E. Coli, as the C-terminal portion of XIAP lacking BIR1 and BIR2, and containing BIR3 and the RING domain to the final C-terminal residue, and purified to greater than 95% purity. Only the properly folded BIR3 domain is required here, and many fusion and purification strategies are available to achieve this.
The FP assay is based on the following principles: a smaller molecule tumbles more rapidly in solution than a larger one. A tumbling fluor will depolarize plane-polarized light, and any change in tumbling rate due to binding of the peptide to a larger molecule such as XIAP or the displacement of the peptide from XIAP, and therefore any change in fluorescence polarization can be accurately and sensitively measured (FIGS. 2A and 2B). […]
Assays and High Throughput assays. […] Following overnight incubation at 4° C., the fluorescence polarization was measured using a Polarion plate reader (Tecan, Research Triangle Park, N.C.). […]
Upon primary screening, hits were re-supplied from Talon Cheminformatics (Acton, ON, Canada) and a new 20 mM drug stock was prepared in 10% DMSO. […] Fluorescence Polarization Units are expressed in MP (FIG. 6).

Assay [3] addresses T1, XIAP BIR3. As to conditions: previously shown; cited from earlier work.

T1 sequence (P98170 246-497 limits assumed): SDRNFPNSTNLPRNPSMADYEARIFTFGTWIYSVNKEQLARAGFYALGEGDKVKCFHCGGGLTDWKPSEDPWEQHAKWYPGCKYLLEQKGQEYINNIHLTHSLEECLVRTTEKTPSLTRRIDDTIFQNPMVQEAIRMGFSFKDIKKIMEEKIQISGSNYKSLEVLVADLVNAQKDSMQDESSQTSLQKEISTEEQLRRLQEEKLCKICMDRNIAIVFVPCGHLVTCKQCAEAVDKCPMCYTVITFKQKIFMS

Regarding `COc1cccc2c1C(=O)c1c(O)c3c(c(O)c1C2=O)C[C@@](O)(C(=O)CO)C[C@@H]3O[C@H]1C[C@H](N)[C@H](O)[C@H](C)O1` [adriamycin], the “cell death with adriamycin on its own” value in assay [1] was “does not result in any cell death”.

Take “Ala-Val-Pro-Phe-Tyr-Leu-Pro-Gly-Gly (AVPFYLPGG; not fully specified (C-terminus); printed as Ala-Val-Pro-Phe-Tyr-Leu-Pro-Gly-Gly; also: fluorescein label (probe form)) [HID peptide, peptide based on Drosophila HID with Gly-Gly spacer]”: the “competition with / displacement of fluorescein-labeled HID peptide from XIAP BIR3” value in assay [2] is “compete off the fluorescein-labeled peptide”; in assay [2] (listed as HID polypeptide), “can compete with labeled HID polypeptide”. Besides, the “binding affinity to XIAP BIR3” value in assay [3] was “high affinity”.
